In the supplement of paper PMC10567573:

B1: ZNF511 (parent)
chain: HLYPADFRFDKPKKSRSPASAEAP
B2: SMOC2 (parent)
chain: DCAGSPQKPLCASDGRTFLSRCEF

Variants of: B1
Assay: protein stability index of a GFP-peptide fusion (GPS, HEK-293T) (PSI 1-6); higher = more stable
Details: c terminus: a fixed tail appended
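Also: lentivirally expressed fusions sorted by FACS into six bins by GFP to DsRed ratio, PSI derived from sequencing read proportions per bin multiplied by bin number.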

Variant	protein stability index
HLYPADFRFDHPKKSRSPASAEAP [K11H]	2.98
HLYIADFRFDKPKKSRSPASAEAP [P4I]	3.56
HLYPADFRFDKPKWSRSPASAEAP [K14W]	2.56
HLYPADFHFDKPKKSRSPASAEAP [R8H]	2.82
HLYPADFRFDKPKKSRSTASAEAP [P18T]	3.52
HLYPADFRFDKPKKKRSPASAEAP [S15K]	3.24
HLYPADFRFDKPKKSRSPASAEGP [A23G]	3.28
HWYPADFRFDKPKKSRSPASAEAP [L2W]	2.87
HLYPADFRFDKPKKSRSPASAVAP [E22V]	2.7
HLYPIDFRFDKPKKSRSPASAEAP [A5I]	3.5
HLIPADFRFDKPKKSRSPASAEAP [Y3I]	3.73
HLYPADFRFDKPKKSRSPASAEAF [P24F]	2.94

Variants of: B2
Assay: as above
Details: c terminus: a fixed tail appended

Variant	protein stability index
DCAGSPQKPLCASDGRTLLSRCEF [F18L]	4.12
DCAGSPQKPLCASDGRTVLSRCEF [F18V]	2.84
DCAGSPQKPLCASDGRTFLSRCQF [E23Q]	3.27
DCAGSPQKPLCASDGRTFLSRCIF [E23I]	1.52
DCAGSPQKPLCASDGRTFLSRCGF [E23G]	1.5
DCSGSPQKPLCASDGRTFLSRCEF [A3S]	2.32
DCQGSPQKPLCASDGRTFLSRCEF [A3Q]	2.82
PCAGSPQKPLCASDGRTFLSRCEF [D1P]	2.66
FCAGSPQKPLCASDGRTFLSRCEF [D1F]	1.5
DCAGSPQKPLCASSGRTFLSRCEF [D14S]	3.19
DCAGSPQKPLCASAGRTFLSRCEF [D14A]	2.52
DCAGSPQKPLCASHGRTFLSRCEF [D14H]	1.78
DCAGSPQKPLCAPDGRTFLSRCEF [S13P]	1.9
DCAGSPQKPLCAHDGRTFLSRCEF [S13H]	2.29
DCAGSPQKPLCAFDGRTFLSRCEF [S13F]	1.7
DCAGSPQKPLCAADGRTFLSRCEF [S13A]	3.39
DCAGSPQKPLCACDGRTFLSRCEF [S13C]	2.16
DEAGSPQKPLCASDGRTFLSRCEF [C2E]	3.84
DTAGSPQKPLCASDGRTFLSRCEF [C2T]	3.5
DPAGSPQKPLCASDGRTFLSRCEF [C2P]	3.4
DVAGSPQKPLCASDGRTFLSRCEF [C2V]	2.58

Variant	protein stability index
DCAGSPQKPLCASDGRTFLSRVEF [C22V]	2.63
DCAGSPQKPLCASDGRTFLSRLEF [C22L]	2.5
DCAGSPQKPLCASDGRTFLSRPEF [C22P]	3.95
DCAGSPQKPLCASDGNTFLSRCEF [R16N]	3.61
DCAGSPQKPLCASDGCTFLSRCEF [R16C]	2.33
DCAGSPQKPLCASDGETFLSRCEF [R16E]	4.14
DCAGSPQKPLCASDGRTFYSRCEF [L19Y]	2.49
DCAGSPQKPLCASDGRTFTSRCEF [L19T]	2.59
DCAGSPQKPLCASDGRTFLSRCEA [F24A]	3.45
DCAGSPQKPLCASDGRTFLSRCEN [F24N]	3.93
DCAGSPQKPLCASDGRTFLSRCET [F24T]	2.61
DCAGSPQKPLCASDGRTFLSRCEP [F24P]	2.43
DCAGSPQKPLCASDGRTFLSRCED [F24D]	4.38
DCAGSPQKPLCASDGRTFLSRCEY [F24Y]	2.67
DCAGWPQKPLCASDGRTFLSRCEF [S5W]	2.46
DCAGGPQKPLCASDGRTFLSRCEF [S5G]	3.07
DCAGFPQKPLCASDGRTFLSRCEF [S5F]	1.72
DCAGSPQKPLCASDGRDFLSRCEF [T17D]	3.12
DCAGSPQKPLCASDGRYFLSRCEF [T17Y]	2.77
DCAGSPQKPLCASDGRCFLSRCEF [T17C]	2.04
DCAGSPQKPLCASDGRRFLSRCEF [T17R]	2.47

Variant	protein stability index
DCAGSPQKPLCASDGRPFLSRCEF [T17P]	3.4
DCAGSPQKPLCASDGRNFLSRCEF [T17N]	3.27
DCAGSPQKPICASDGRTFLSRCEF [L10I]	2.63
DCAGSPQKPFCASDGRTFLSRCEF [L10F]	1.82
DCAGSPQKPTCASDGRTFLSRCEF [L10T]	2.65
DCAGSPQKPYCASDGRTFLSRCEF [L10Y]	2.47
DCAGSPQFPLCASDGRTFLSRCEF [K8F]	3.62
DCAGSPQCPLCASDGRTFLSRCEF [K8C]	2.18
DCAGSPQGPLCASDGRTFLSRCEF [K8G]	2.94
DCAGSPQKPLNASDGRTFLSRCEF [C11N]	2.67
DCAGSPQKPLMASDGRTFLSRCEF [C11M]	3.23
DCAGSPQKPLHASDGRTFLSRCEF [C11H]	2.73
DCAGSPQKPLQASDGRTFLSRCEF [C11Q]	2.82
DCAGSPAKPLCASDGRTFLSRCEF [Q7A]	2.51
DCAGSPTKPLCASDGRTFLSRCEF [Q7T]	2.46
DCAGSPVKPLCASDGRTFLSRCEF [Q7V]	2.39
DCAGSPKKPLCASDGRTFLSRCEF [Q7K]	3.04
DCAGSPDKPLCASDGRTFLSRCEF [Q7D]	2.94
DCAGSPQKPLCASDMRTFLSRCEF [G15M]	2.81
DCAGSPQKPLCASDCRTFLSRCEF [G15C]	1.99
DCAGSPQKPLCASDIRTFLSRCEF [G15I]	2.76

Variant	protein stability index
DCAMSPQKPLCASDGRTFLSRCEF [G4M]	2.32
DCAWSPQKPLCASDGRTFLSRCEF [G4W]	2.32
DCAQSPQKPLCASDGRTFLSRCEF [G4Q]	2.88
DCANSPQKPLCASDGRTFLSRCEF [G4N]	2.62
DCALSPQKPLCASDGRTFLSRCEF [G4L]	2.56
DCAVSPQKPLCASDGRTFLSRCEF [G4V]	2.47
DCAHSPQKPLCASDGRTFLSRCEF [G4H]	3.44
DCAGSPQKPLCASDGRTFLSVCEF [R21V]	2.65
DCAGSPQKPLCASDGRTFLSMCEF [R21M]	1.68
DCAGSPQKPLCASDGRTFLSNCEF [R21N]	3.78
DCAGSPQKPLCASDGRTFLSACEF [R21A]	2.71
DCAGSPQKPLCASDGRTFLSHCEF [R21H]	3.26
DCAGSPQKSLCASDGRTFLSRCEF [P9S]	3.08
DCAGSPQKTLCASDGRTFLSRCEF [P9T]	2.69
DCAGSCQKPLCASDGRTFLSRCEF [P6C]	2.14
DCAGSAQKPLCASDGRTFLSRCEF [P6A]	1.73
DCAGSQQKPLCASDGRTFLSRCEF [P6Q]	2.75
DCAGSFQKPLCASDGRTFLSRCEF [P6F]	1.76
DCAGSPQKPLCASDGRTFLHRCEF [S20H]	2.68
